The experiment has as its target HIV-1 CA carrying the A92E substitution (HIV-1). As to the kind of experiment: cryo-EM structure.

With “HIV-1 CA carrying the A92E substitution (natural protein)”, the stoichiometry N turned out to be 6.

By stoichiometry N is commonly meant the number of molecules, sites or subunits per partner or assembly.
